Assay results taken from publication PMC2581579.

Biological target: mutant ferritin light chain p.Phe167SerfsX26 (MT-FTL) homopolymer (human) (UniProt P02792)
Assay: SEC

## mutant ferritin light chain p.Phe167SerfsX26 (MT-FTL) homopolymer (from UniProt P02792 1-166) (natural protein)
  stoichiometry N: 24
